Where “and” joins values, the source holds several entries; their conditions need not be identical. Identical values can stand only once. Blank lines part the entries; values can stand above or below the substance they belong to.
Key:
[1] = molecular target: D3H44 light chain F116C_Q124R_T178R with N-terminal HA or FLAG tag; assay: LCCA (SPR tag readout), L1:L2 DNA 1:3, normalized to 1:1; competing light chain m18
[2] = molecular target: D3H44 light chain Q124E_Q160E_T180E with N-terminal HA or FLAG tag; assay: LCCA (SPR tag readout), L1:L2 DNA 1:3, normalized to 1:1; competing light chain m17
[3] = molecular target: D3H44 light chain Q124E_Q160E_T180E_C214S; assay: LCCA, SPR tag readout, L1:L2 DNA 1:3 normalized to 1:1; competitor m20
[4] = molecular target: D3H44 light chain Q38E_Q124E_Q160E_T180E; assay: as above
[5] = molecular target: D3H44 light chain P44F_S131K; assay: LCCA, SPR tag readout, L1:L2 DNA 1:9 normalized to 1:1; competitor m22
[6] = molecular target: D3H44 light chain P44F_S131K; assay: LCCA, SPR tag readout, L1:L2 DNA 1:3 normalized to 1:1; competitor m22
[7] = molecular target: D3H44 light chain Q124E_Q160E_T180E_C214S; assay: LCCA, SPR tag readout, L1:L2 DNA 1:9 normalized to 1:1; competitor m20
[8] = molecular target: D3H44 light chain P44F_S131K; assay: LCCA, SPR tag readout, L1:L2 DNA 1:3 normalized to 1:1; competitor m19
[9] = molecular target: D3H44 light chain Q124E_V133G_S176D_T178E_T180E; assay: LCCA (co-expression, SPR tag read-out), L1:L2 DNA 1:9 normalised to 1:1; competing light chain m8
[10] = molecular target: D3H44 light chain V133G_Q160E_S176D_T180E; assay: as above
[11] = molecular target: D3H44 light chain Q124E_V133G_S176D_T178E_T180E; assay: LCCA (co-expression, SPR tag read-out), L1:L2 DNA 1:3 normalised to 1:1; competing light chain m7
[12] = molecular target: D3H44 light chain Q124E_V133G_S176D_T178D_T180E; assay: as above
[13] = molecular target: D3H44 light chain V133G_S176D_T178E_T180E; assay: as above
[14] = molecular target: D3H44 light chain V133G_S176D_T178D_T180E; assay: as above
[15] = molecular target: D3H44 light chain Q124E_V133G_S176D_T178E_T180E; assay: LCCA (co-expression, SPR tag read-out), L1:L2 DNA 1:3 normalised to 1:1; competing light chain m8
[16] = molecular target: D3H44 light chain Q124E_V133G_S176D_T178D_T180E; assay: as above
[17] = molecular target: D3H44 light chain V133G_S176D_T178E_T180E; assay: as above
[18] = molecular target: D3H44 light chain V133G_S176D_T178D_T180E; assay: as above
[19] = molecular target: D3H44 light chain V133G_Q160E_S176D_T180E; assay: as above
[20] = molecular target: D3H44 light chain Q124R_T178R with N-terminal HA or FLAG tag; assay: LCCA (SPR tag readout), L1:L2 DNA 1:3, normalized to 1:1; competing light chain m16
[21] = molecular target: D3H44 light chain Q124E_V133D with N-terminal HA or FLAG tag; assay: LCCA (SPR tag readout), L1:L2 DNA 1:3, normalized to 1:1; competing light chain m9
[22] = molecular target: D3H44 light chain Q124E_V133D with N-terminal HA or FLAG tag; assay: LCCA (SPR tag readout), L1:L2 DNA 1:9, normalized to 1:1; competing light chain m9
[23] = molecular target: D3H44 light chain Q124R_T178R with N-terminal HA or FLAG tag; assay: LCCA (SPR tag readout), L1:L2 DNA 1:9, normalized to 1:1; competing light chain m16
[24] = molecular target: D3H44 light chain Q38E_Q124E_Q160E_T180E; assay: LCCA, SPR tag readout, L1:L2 DNA 1:3 normalized to 1:1; competitor m26
[25] = molecular target: D3H44 light chain Q38R_Q124R_Q160K_T178R; assay: LCCA, SPR tag readout, L1:L2 DNA 1:3 normalized to 1:1; competitor m19
[26] = molecular target: tissue factor (TF) antigen (UniProt P13726); assay: SPR (ProteOn XPR36), Fab captured on anti-penta-His surface, TF injected as analyte, 1:1 fit; reference wild-type D3H44 Fab
[27] = molecular target: tissue factor (TF) antigen (UniProt P13726); assay: SPR (ProteOn XPR36), Fab captured on anti-penta-His surface, TF injected as analyte, 1:1 fit
[28] = molecular target: tissue factor (TF) antigen (UniProt P13726); assay: SPR (ProteOn XPR36), Fab captured on anti-penta-His surface, TF injected as analyte, 1:1 fit; marked * (estimated from a Fab that differs only in the L chain tag)
[29] = molecular target: tissue factor (TF) antigen (UniProt P13726); assay: SPR (ProteOn XPR36), Fab captured on anti-penta-His surface, TF injected as analyte, 1:1 fit; marked * (estimated from a Fab that differs only in the L chain tag); reference wild-type D3H44 Fab
[30] = molecular target: D3H44 Fab heavy chain Q179K, ABD2-His6 tagged; assay: LCCA, SPR of light chain tags; L1:L2 DNA 1:9 normalized to 1:1; competing light chain m16
[31] = molecular target: D3H44 Fab heavy chain L143E_K145T_Q179E, ABD2-His6 tagged; assay: as above
[32] = molecular target: D3H44 Fab heavy chain Q179R, ABD2-His6 tagged; assay: as above
[33] = molecular target: D3H44 Fab heavy chain Q179K, ABD2-His6 tagged; assay: LCCA, SPR of light chain tags; L1:L2 DNA 1:3 normalized to 1:1; competing light chain m16
[34] = molecular target: D3H44 Fab heavy chain L143E_K145T_Q179E, ABD2-His6 tagged; assay: as above
[35] = molecular target: D3H44 Fab heavy chain Q179R, ABD2-His6 tagged; assay: as above
[36] = molecular target: D3H44 Fab heavy chain L124W_L143F_K145T_Q179E, ABD2-His6 tagged; assay: LCCA, SPR of light chain tags; L1:L2 DNA 1:3 normalized to 1:1; competing light chain m14
[37] = molecular target: D3H44 Fab heavy chain L143E_K145T_Q179E, ABD2-His6 tagged; assay: LCCA, SPR of light chain tags; L1:L2 DNA 1:3 normalized to 1:1; competing light chain m19
[38] = molecular target: D3H44 Fab heavy chain S186K, ABD2-His6 tagged; assay: as above
[39] = molecular target: D3H44 Fab heavy chain L143E_K145T_Q179D, ABD2-His6 tagged; assay: as above
[40] = molecular target: D3H44 Fab heavy chain S186R, ABD2-His6 tagged; assay: as above

Substance: D3H44 Fab heavy chain A139C_L143E_K145T_Q179E with C-terminal ABD2-His6 tag
H1L1:H1L2 normalized median ratio [1]: 89% | H1L1:H1L2 normalized median scalar value ln(r1/f1) [1]: 2.08 | H1L1:H1L2 normalized median ratio [2]: 11%

Substance: D3H44 Fab heavy chain L124E_K145T_Q179E
H1L1:H1L2 normalized median ratio [9]: 3 parts of 100 | H1L1:H1L2 normalized median ratio [10]: 5 parts of 100 | H1L1:H1L2 normalized median ratio [11]: 5 parts of 100 | H1L1:H1L2 normalized median ratio [12]: 4 parts of 100 | H1L1:H1L2 normalized median ratio [13]: 5 parts of 100 | H1L1:H1L2 normalized median ratio [14]: 5 parts of 100 | H1L1:H1L2 normalized median ratio [15]: 3 parts of 100 | H1L1:H1L2 normalized median ratio [16]: 4 parts of 100 | H1L1:H1L2 normalized median ratio [17]: 3 parts of 100 | H1L1:H1L2 normalized median ratio [18]: 4 parts of 100 | H1L1:H1L2 normalized median ratio [19]: 4 parts of 100

Substance: D3H44 Fab heavy chain L124R_Q179K
H2L2:H2L1 normalized median ratio [9]: 91 parts of 100 | H2L2:H2L1 normalized median ratio [10]: 94 parts of 100 | H2L2:H2L1 normalized median ratio [11]: 93 parts of 100 | H2L2:H2L1 normalized median ratio [13]: 93 parts of 100 | H2L2:H2L1 normalized median ratio [15]: 92 parts of 100 | H2L2:H2L1 normalized median ratio [17]: 92 parts of 100 | H2L2:H2L1 normalized median ratio [19]: 91 parts of 100

Substance: D3H44 Fab heavy chain Q39E_L143E_K145T_Q179E
H1L1:H1L2 normalized median ratio [24]: 3% | H1L1:H1L2 normalized median ratio [25]: 97% | H1L1:H1L2 normalized median scalar value ln(r1/f1) [25]: 3.58 and 1.58

Substance: D3H44 H1L1 Fab heterodimer, H1 L124E_L143E_K145T, L1 Q124K_V133G_Q160K_S176R
Change in median KD of h1l1 Fab heterodimer compared to wild type (-(log(KD design)-log(KD wt))) (log(KD) difference) [26]: -0.12 | Kd [27]: 0.2 nM

Substance: D3H44 H1L1 Fab heterodimer, H1 L124E_L143E_K145T, L1 Q124K_V133G_S176R_T178R
Kd [28]: 0.18 nM | Change in median KD of h1l1 Fab heterodimer compared to wild type (-(log(KD design)-log(KD wt))) (log(KD) difference) [29]: -0.07

Substance: D3H44 light chain Q124E_T178E, HA or FLAG tagged
H2L2:H2L1 normalized median ratio [30]: 89% | H1L1:H1L2 normalized median ratio [31]: 15% | H2L2:H2L1 normalized median ratio [32]: 85% | H2L2:H2L1 normalized median ratio [33]: 96% | H1L1:H1L2 normalized median ratio [34]: 14% | H2L2:H2L1 normalized median ratio [35]: 97%

Substance: D3H44 light chain Q124R_T178K, HA or FLAG tagged
H1L1:H1L2 normalized median ratio [37]: 84% | H1L1:H1L2 normalized median scalar value ln(r1/f1) [37]: 1.69 | H2L2:H2L1 normalized median ratio [38]: 3% | H1L1:H1L2 normalized median ratio [39]: 84% | H1L1:H1L2 normalized median scalar value ln(r1/f1) [39]: 1.63 | H2L2:H2L1 normalized median ratio [40]: 3%

More lines, now with the values ahead:

H1L1:H1L2 normalized median ratio [3]: 4% | H2L2:H2L1 normalized median ratio [3]: 4% | H1L1:H1L2 normalized median ratio [4]: 6% | H2L2:H2L1 normalized median ratio [4]: 6% | H1L1:H1L2 normalized median ratio [5]: 93% | H1L1:H1L2 normalized median scalar value ln(r1/f1) [5]: 2.54 | H2L2:H2L1 normalized median ratio [5]: 93% | H1L1:H1L2 normalized median ratio [6]: 96% | H1L1:H1L2 normalized median scalar value ln(r1/f1) [6]: 3.19 | H2L2:H2L1 normalized median ratio [6]: 96% | H1L1:H1L2 normalized median ratio [7]: 7% | H2L2:H2L1 normalized median ratio [7]: 7% | H1L1:H1L2 normalized median ratio [8]: 94% | H1L1:H1L2 normalized median scalar value ln(r1/f1) [8]: 2.83 | H2L2:H2L1 normalized median ratio [8]: 94%
Substance: D3H44 Fab heavy chain L45P_K145T_Q179E

H2L2:H2L1 normalized median ratio [12]: 92 parts of 100 | H2L2:H2L1 normalized median ratio [14]: 91 parts of 100 | H2L2:H2L1 normalized median ratio [16]: 91 parts of 100 | H2L2:H2L1 normalized median ratio [18]: 90 parts of 100
Substance: D3H44 Fab heavy chain L124R_S186K

H2L2:H2L1 normalized median ratio [20]: 8% | H2L2:H2L1 normalized median ratio [21]: 92% | H2L2:H2L1 normalized median ratio [22]: 92% | H2L2:H2L1 normalized median ratio [23]: 8%
Substance: D3H44 Fab heavy chain L143K with C-terminal ABD2-His6 tag

Change in median KD of h1l1 Fab heterodimer compared to wild type (-(log(KD design)-log(KD wt))) (log(KD) difference) [26]: -0.26 | Kd [27]: 0.28 nM
Substance: D3H44 H1L1 Fab heterodimer, H1 L124E_L143E_K145M, L1 Q124K_V133G_Q160K_S176R

H2L2:H2L1 normalized median ratio [36]: 31%
Substance: D3H44 light chain Q124E_V133W_S176T_T178L_T180E, HA or FLAG tagged
